The results in this text go back to EP2004352B1 (Palatin Technologies, Inc., dated 2012).

Bridge positions count the residues as written; N and C are the ends.

Broadly, the Ki is a measure of affinity in units of concentration, obtained from inhibition or displacement. The low end stands for a stronger hold on the target, the high end for a looser hold on the target.

In experiment [1] the target is T1, human natriuretic peptide receptor A (NPRA) (human, UniProt P16066 33-1061).
T1 construct: whole, on cells; the cGMP assay used whole HEK-hNPRA cells; also called hNPRA; HEK-hNPRA cells
T1 sequence (looked up): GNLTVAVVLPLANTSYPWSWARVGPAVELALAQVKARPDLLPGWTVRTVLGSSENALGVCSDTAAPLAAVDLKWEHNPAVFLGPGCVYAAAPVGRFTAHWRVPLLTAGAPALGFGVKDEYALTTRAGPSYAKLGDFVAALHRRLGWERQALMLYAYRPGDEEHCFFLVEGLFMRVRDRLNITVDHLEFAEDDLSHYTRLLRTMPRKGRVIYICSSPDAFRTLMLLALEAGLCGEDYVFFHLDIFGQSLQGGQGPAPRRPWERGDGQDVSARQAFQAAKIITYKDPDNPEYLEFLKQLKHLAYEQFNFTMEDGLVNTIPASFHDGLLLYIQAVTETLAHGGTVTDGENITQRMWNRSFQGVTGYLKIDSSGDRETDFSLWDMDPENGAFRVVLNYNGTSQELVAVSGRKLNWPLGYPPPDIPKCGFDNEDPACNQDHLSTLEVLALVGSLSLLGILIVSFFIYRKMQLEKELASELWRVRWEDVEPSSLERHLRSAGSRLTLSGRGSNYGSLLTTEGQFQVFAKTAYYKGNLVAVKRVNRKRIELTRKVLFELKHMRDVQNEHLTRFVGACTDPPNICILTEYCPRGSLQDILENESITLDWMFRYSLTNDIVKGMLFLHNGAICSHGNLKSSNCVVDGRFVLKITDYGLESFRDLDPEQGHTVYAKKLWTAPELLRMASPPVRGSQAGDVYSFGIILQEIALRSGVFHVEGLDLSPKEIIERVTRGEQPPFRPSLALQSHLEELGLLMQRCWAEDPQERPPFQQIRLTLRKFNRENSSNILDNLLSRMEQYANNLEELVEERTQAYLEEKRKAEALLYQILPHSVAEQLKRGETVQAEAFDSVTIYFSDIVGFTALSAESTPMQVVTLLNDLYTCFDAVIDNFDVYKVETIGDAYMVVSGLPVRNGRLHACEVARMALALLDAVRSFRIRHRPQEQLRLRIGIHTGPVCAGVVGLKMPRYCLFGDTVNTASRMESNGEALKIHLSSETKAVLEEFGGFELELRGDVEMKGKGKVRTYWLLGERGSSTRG
The experiment can be described thus: competition with [125I]-ANP on HEK-hNPRA membrane homogenates.

Experiment [2] has as its target T1, human natriuretic peptide receptor A …. As to the kind of experiment: cell-based or functional assay.

B1: mini-ANP, H-Met-cyclo(Cys-His-Phe-Gly-Gly-Arg-Met-Asp-Arg-Ile-Ser-Cys)-Tyr-Arg-NH2 (peptide)
peptide: H-MCHFGGRMDRISCYR-NH2
modifications: disulfide 2-13
SMILES: CC[C@H](C)[C@@H]1NC(=O)[C@H](CCCNC(=N)N)NC(=O)[C@H](CC(=O)O)NC(=O)[C@H](CCSC)NC(=O)[C@H](CCCNC(=N)N)NC(=O)CNC(=O)CNC(=O)[C@H](Cc2ccccc2)NC(=O)[C@H](Cc2c[nH]cn2)NC(=O)[C@@H](NC(=O)[C@@H](N)CCSC)CSSC[C@@H](C(=O)N[C@@H](Cc2ccc(O)cc2)C(=O)N[C@@H](CCCNC(=N)N)C(N)=O)NC(=O)[C@H](CO)NC1=O
notes: also called min-ANP; parent polypeptide
B1 had an inhibition constant (Ki) in experiment [1] of 0.6 nM. In addition, the “EC50 (cGMP accumulation)” value in experiment [2] is 3.3 nM.
